According to US20190177380, “SYNTHETIC MBNL PROTEINS FOR TREATMENT OF REPEAT EXPANSION DISEASE” (University of Florida Research Foundation, Incorporated, published 2019):

Legend:
[1] = target: T1, TRBP dsRBD2 (TARBP2) (Homo sapiens) (UniProt Q15633); details: CITED; isolated dsRBD2; cited from earlier work
T1 sequence: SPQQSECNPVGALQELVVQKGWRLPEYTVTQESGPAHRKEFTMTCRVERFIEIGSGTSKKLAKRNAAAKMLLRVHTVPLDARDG

[2] = target: T2, Xlrbpa dsRBD2 (printed Xlbpra) (Xenopus laevis) (UniProt Q91836); details: CITED; isolated dsRBD2; cited from earlier work
T2 sequence: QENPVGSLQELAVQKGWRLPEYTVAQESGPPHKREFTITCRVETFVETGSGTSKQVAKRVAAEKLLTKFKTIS

[3] = target: T3, WT-MBNL1 (truncated, aa 1-260 with HA tag and SV40 NLS) (Homo sapiens, UniProt Q9NR56 SEQ:14-272); test: EMSA; 115 mM NaCl, 20 mM Tris pH 7.5, 5 mM MgCl2, heparin, room temperature; apparent Kd; repeated with another batch in FIG. 10C; details: label: 5'-32P; short hairpin (predicted)
T3 chain: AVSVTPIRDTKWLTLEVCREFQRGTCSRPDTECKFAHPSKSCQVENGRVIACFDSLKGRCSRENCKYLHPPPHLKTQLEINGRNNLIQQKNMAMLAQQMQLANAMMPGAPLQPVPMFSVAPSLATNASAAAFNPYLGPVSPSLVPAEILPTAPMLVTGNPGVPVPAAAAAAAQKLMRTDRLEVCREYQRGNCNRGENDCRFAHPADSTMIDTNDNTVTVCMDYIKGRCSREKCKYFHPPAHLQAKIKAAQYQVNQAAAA
Excerpt: (§1) All synthetic MBNL1 proteins were expressed and purified as N-terminal glutathione S-transferase (GST) fusions (FIG. 4A). These proteins were then used in electrophoretic mobility shift assays (EMSAs) with CUG₄ RNA substrate. The fraction of radiolabeled RNA bound to the protein was used to determine an apparent KD (dissociation constant). […] (FIG. 4B).
(§2) All RNA substrates were ordered from IDT (Coralville, Iowa) or Dharmacon (Lafayette, Colo.) and 5′ end-labelled using T4 PNK (NEB, Ipswich, Mass.) with [γ-³²P] ATP. All RNAs were purified on 10% polyacrylamide denaturing gels. Prior to incubation with protein, these RNAs were denatured by incubation at 95° C. for 2 minutes followed by a 5 minute incubation on ice. Once cooled the RNA was mixed with increasing concentrations of protein (final volume=10 μl) to yield final reaction conditions of 115 mM NaCl, 20 mM Tris pH 7.5, 1 mM β-ME, 0.01 mM EDTA, 10% glycerol, 5 mM MgCl₂, 0.1 mg/ml heparin, 2 mg/ml bovine serum albumin (BSA), and 0.02% xylene cyanol. […] Binding curves were quantified using ImageQuant software (GE Healthcare Life Sciences, Pittsburgh, Pa.). The fraction of RNA bound was calculated as the ratio of all RNA-protein complexes divided by total RNA signal in each lane. The apparent Kd was then determined using the following equation: fbound=fₘₐₓ([MBNL1]/([MBNL1+Kd)).

[4] = target: T4, MBNL1(3-4,3-4) (Homo sapiens); test: EMSA; 115 mM NaCl, 20 mM Tris pH 7.5, 5 mM MgCl2, heparin, room temperature; apparent Kd; details: label: 5'-32P; short hairpin (predicted)
T4 chain: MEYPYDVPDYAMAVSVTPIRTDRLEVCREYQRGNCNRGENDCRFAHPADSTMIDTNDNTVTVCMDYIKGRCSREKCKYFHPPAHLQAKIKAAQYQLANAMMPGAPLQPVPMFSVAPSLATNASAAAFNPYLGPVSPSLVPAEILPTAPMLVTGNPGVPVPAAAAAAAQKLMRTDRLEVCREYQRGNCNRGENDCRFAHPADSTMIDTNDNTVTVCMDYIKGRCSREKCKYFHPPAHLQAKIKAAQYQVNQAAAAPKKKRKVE
Excerpt: as §1, §2

[5] = target: T5, MBNL1(1-2,1-2) (Homo sapiens); test: as above; details: label: 5'-32P; short hairpin (predicted)
T5 chain: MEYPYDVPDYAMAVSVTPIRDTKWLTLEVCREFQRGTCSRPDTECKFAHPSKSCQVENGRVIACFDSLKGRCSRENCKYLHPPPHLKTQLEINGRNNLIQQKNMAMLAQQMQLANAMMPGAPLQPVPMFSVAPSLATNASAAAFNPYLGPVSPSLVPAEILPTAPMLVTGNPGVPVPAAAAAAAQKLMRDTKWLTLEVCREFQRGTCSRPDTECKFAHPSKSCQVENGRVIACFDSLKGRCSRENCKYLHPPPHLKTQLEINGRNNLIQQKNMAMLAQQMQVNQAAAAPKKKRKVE
Excerpt: as §1, §2

## HIV TAR RNA
[1]
  Kd: 59 nM

## 30 bp synthetic dsRNA
[2]
  Kd: 11 nM

## GCUGCUGUUCGCUGCUG (ssRNA) [CUG4]
[3]
  Kd: 196 nM
[4]
  Kd: 257 nM
[5]
  Kd: 269 nM
